These results are taken from patent US20090311265A1.

In the experiment the target is HA of BPL-inactivated virus preparation of strain A/New Caledonia/20/99 (H1N1) (influenza A virus A/New Caledonia/20/99 (H1N1)). The experiment can be described thus: ELISA, coated inactivated virus, IgG 5 µg/ml. In general terms: ELISA stands for enzyme-linked immunosorbent assay.

B1: CR6329 (antibody, V domains shown)
VH: EVQLVQSGAEVKKPGSSVKVSCKASGGIFRSNSISWVRQAPGQGLEWMGGIFALFGTTDYAQKFQGRVTITADESSTTVYLELSSLTSEDTAVYYCARGSGYTTRNYFDYWGQGTLVTVSS
VL: EIVLTQSPGTLSLSPGERATLSCRASQSVSSNYLGWYQQKPGQAPRLLIYGASSRASGIPDRFSGGGSGTDFTLTISRLEPEDFAVYYCQQYGSSPLTFGGGTKVEIKR
In turn, B1 had an OD 492 nm of 1.04 OD 492 nm.
